The chains are these.
T1: CD40L over-expressed on Expi293 cells (UniProt P29965 1-261, limits assumed)
T1 construct: whole, on cells; also called cytokine over-expressing Expi293 cells
T1 sequence (looked up): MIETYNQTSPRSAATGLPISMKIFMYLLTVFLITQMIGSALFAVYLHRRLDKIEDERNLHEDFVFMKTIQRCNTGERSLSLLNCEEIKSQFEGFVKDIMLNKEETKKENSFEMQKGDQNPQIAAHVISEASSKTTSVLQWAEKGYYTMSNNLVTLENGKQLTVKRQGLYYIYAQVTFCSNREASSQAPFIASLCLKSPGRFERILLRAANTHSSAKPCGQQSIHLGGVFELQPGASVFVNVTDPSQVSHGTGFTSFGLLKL

T2: CD40L (UniProt P29965 113-261, limits assumed)
T2 construct: SPR analyte
T2 sequence (looked up): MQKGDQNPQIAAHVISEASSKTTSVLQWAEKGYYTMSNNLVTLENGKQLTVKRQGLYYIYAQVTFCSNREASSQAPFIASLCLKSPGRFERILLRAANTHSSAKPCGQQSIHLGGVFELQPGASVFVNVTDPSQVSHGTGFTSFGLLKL

B1: CD40L-10 (VHH)
VHH: EVQLVESGGGLVQPGGSLRLSCAASGRIFSTYFMGWFRQAPGKEREFVAAIYWSNGKTQYADSVKGRFTISADNSKNTAYLQMNSLKPEDTAVYYCAAWLNGGNRWGQGTLVTVSS
B2: CD40L-37 (VHH)
VHH: EVQLVESGGGLVQPGGSLRLSCAASGRTFSSYYMGWFRQAPGKEREEVATFYTGDGRTYYADSVKGRFTISADNSKNTAYLQMNSLKPEDTAVYYCAAWLNGGNRWGQGTLVTVSS
B3: CD40L-49 (VHH)
VHH: B1 VHH with I28T, T31R, F33Y
B4: CD40L-3 (VHH)
VHH: B1 VHH with F47W, A49S, A50S, W53S, S54D, N55G, G56S, K57T, Q59D
B5: CD40L-7 (VHH)
VHH: B2 VHH with R27H, E47F, T50A, F51I, T53S, D55G, G56I, R57T, Y59H
B6: CD40L-26 (VHH)
VHH: EVQLVESGGGLVQPGGSLRLSCAASGLTFSRYEMGWFRQAPGKEREFVAAVTEDGSINYADSVKGRFTISADNSKNTAYLQMNSLKPEDTAVYYCAAEIGYYSGGTYFSSEAWGQGTLVTVSS
B7: CD40L-4 (VHH)
VHH: EVQLVESGGGLVQPGGSLRLSCAASGFTLDYYAMGWFRQAPGKEREFVAYVFGGGEITDYADSVKGRFTISADNSKNTAYLQMNSLKPEDTAVYYCANGNGVAETWGQGTLVTVSS
B8: CD40L-2 (VHH)
VHH: EVQLVESGGGLVQPGGSLRLSCAASGGRTFSRYDMGWFRQAPGKEREFVAAISMSGDDAAYADSVKGRFTISADNSKNTAYLQMNSLKPEDTAVYYCASDHYDTDTKSDVYNWGQGTLVTVSS
B9: CD40L-53 (VHH)
VHH: B8 VHH with R32D, S53D, M54A, D57G, D58F, A59T, A60E
B10: CD40L-45 (VHH)
VHH: EVQLVESGGGLVQPGGSLRLSCAASGLNLSRLDMGWFRQAPGKEREFVAASSWTGANTYYADSVKGRFTISADNSKNTAYLQMNSLKPEDTAVYYCASDHYDTDIKSDVYNWGQGTLVTVSS
B11: CD40L-13 (VHH)
VHH: EVQLVESGGGLVQPGGSLRLSCAASGFTFGNYDMGWFRQAPGKEREFVAAIDASGGFTEYADSVKGRFTISADNSKNTAYLQMNSLKPEDTAVYYCASDHYDTDTKSDVYNWGQGTLVTVSS
B12: CD40L-31 (VHH)
VHH: EVQLVESGGGLVQPGGSLRLSCAASGFTFDDSDMGWFRQAPGKEREFVAVVNWSGSSESYADSVKGRFTISADNSKNTAYLQMNSLKPEDTAVYYCASDHYDTDTKSDVYNWGQGTLVTVSS
B13: CD40L-54 (VHH)
VHH: B12 VHH with S32Y, V50A, V51I, N52A, S54T, S56T, S57N, E58S, S59Y
B14: CD40L-8 (VHH)
VHH: B12 VHH with F27R, D30S, D31R, V51I, N52S, S56A, S57Y, E58T, S59E
B15: CD40L-32 (VHH)
VHH: B11 VHH with T28G, N31S, D52Y, A53S, S54D, F57S, T58A, E59Y
B16: CD40L-43 (VHH)
VHH: B12 VHH with T28S, F29L, S32Y, V51I, N52S, S56A, S57Y, E58T, S59E
B17: CD40L-11 (VHH)
VHH: EVQLVESGGGLVQPGGSLRLSCAASGRTWNDLDMGWFRQAPGKEREFVAAISMSGEDAAYADSVKGRFTISADNSKNTAYLQMNSLKPEDTAVYYCASDHYDTDTKSDVYNWGQGTLVTVSS
B18: CD40L-40 (VHH)
VHH: B11 VHH with G30D, N31D, F47L, D52S, S54T, G56D, F57D, E59Y
B19: CD40L-56 (VHH)
VHH: B12 VHH with F29L, D31H, S32Y, V51I, S56A, S57Y, E58T, S59E
B20: CD40L-14 (VHH)
VHH: B11 VHH with G30S, N31T, I51V, D52S, A53Q, G56L, F57L, E59F
B21: CD40L-50 (VHH)
VHH: B17 VHH with R27F, W29F, N30D, L32S
B22: CD40L-5 (VHH)
VHH: B11 VHH with F27L, T28L, G30S, N31S
B23: CD40L-1 (VHH)
VHH: EVQLVESGGGLVQPGGSLRLSCAASGRTFSSIYAMGWFRQAPGKEREFIAVIYWRDGSTLYADSVKGRFTISADNSKNTAYLQMNSLKPEDTAVYYCAAEPYGSGSSLISEYDWGQGTLVTVSS
B24: CD40L-23 (VHH)
VHH: EVQLVESGGGLVQPGGSLRLSCAASGSIDRINAMGWFRQAPGKEREFVAVIYSSDGSTLYADSVKGRFTISADNSKNTAYLQMNSLKPEDTAVYYCAAEPYGSGSSLISEYDWGQGTLVTVSS
B25: CD40L-42 (VHH)
VHH: B24 VHH with I28M, D29S, R30S
B26: CD40L-6 (VHH)
VHH: B24 VHH with R30N, N32H, V48I, S53W, S54R, T58S
B27: CD40L-9 (VHH)
VHH: B24 VHH with I28G, D29L, R30S

Changes are numbered by the printed parent chain. Where only a bound is given, the exact number is not on record here.

The target of the first test is T1, CD40L over-expressed on Expi293 cells. The test is described as follows: flow cytometry, 100 nM antibody, CD40L-Expi293 vs parent Expi293 cells. (A flow cytometer gives signals particle by particle.);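 note: ratio is the mean fluorescence intensity on CD40L-overexpressing Expi293 cells divided by the mean fluorescence intensity on parental Expi293 cells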
Procedure: All incubations and washes were in buffer containing PBS+1% BSA. MFI Ratio is defined by the mean fluorescence intensity (MFI) of the cytokine over-expressing Expi293 cell over the Expi293 parent cell. […] EC50 was calculated in GraphPad Prism.
As for B1, the “100 nM FACS (MFI Ratio)” value came to 93.6 ratio.

On to B2, for which the “100 nM FACS (MFI Ratio)” value was 97.7 ratio.

Turning to B3, the “100 nM FACS (MFI Ratio)” value came to 36.8 ratio.

As for B4, the “100 nM FACS (MFI Ratio)” value was found to be 87.9 ratio.

Regarding B5, the “100 nM FACS (MFI Ratio)” value was determined as 95.4 ratio.

As to B6, the “100 nM FACS (MFI Ratio)” value was determined as 123 ratio.

With B7, the “100 nM FACS (MFI Ratio)” value was 11.8 ratio.

In the case of B8, the “100 nM FACS (MFI Ratio)” value came out at 99.1 ratio.

On to B9, for which the “100 nM FACS (MFI Ratio)” value is 104 ratio.

With B10, the “100 nM FACS (MFI Ratio)” value amounted to 93.9 ratio.

Take B11: the “100 nM FACS (MFI Ratio)” value turned out to be 37.3 ratio.

Turning to B12, the “100 nM FACS (MFI Ratio)” value amounted to 18.5 ratio.

For B13, the “100 nM FACS (MFI Ratio)” value came to 100 ratio.

B14: the “100 nM FACS (MFI Ratio)” value is 80.9 ratio.

For the molecule B15, the “100 nM FACS (MFI Ratio)” value was found to be 152 ratio.

As to B16, the “100 nM FACS (MFI Ratio)” value stood at 83.8 ratio.

As for B17, the “100 nM FACS (MFI Ratio)” value worked out at 84 ratio.

For B18, the “100 nM FACS (MFI Ratio)” value came to 74.2 ratio.

In the case of B19, the “100 nM FACS (MFI Ratio)” value turned out to be 68.4 ratio.

As for B20, the “100 nM FACS (MFI Ratio)” value was determined as 22.5 ratio.

As for B21, the “100 nM FACS (MFI Ratio)” value was 131 ratio.

As for B22, the “100 nM FACS (MFI Ratio)” value stood at 72.9 ratio.

B23: the “100 nM FACS (MFI Ratio)” value came to 119 ratio.

As for B24, the “100 nM FACS (MFI Ratio)” value came to 44.4 ratio.

In the case of B25, the “100 nM FACS (MFI Ratio)” value was determined as 40 ratio.

Turning to B26, the “100 nM FACS (MFI Ratio)” value was 67.4 ratio.

As for B27, the “100 nM FACS (MFI Ratio)” value was 21.1 ratio.

In another test the target is T2, CD40L. The test is described as follows: SPR (Carterra LSA), antibody amine-coupled, 1:1 model.
Procedure: SPR experiments were performed on a Carterra LSA SPR biosensor equipped with a HC30M chip at 25° C. in HBS-TE. Antibodies were diluted to 10 μg/mL and amine-coupled to the sensor chip by EDC/NHS activation, followed by ethanolamine HCl quenching. Increasing concentrations of analyte were flowed over the sensor chip in HBS-TE with 0.5 mg/mL BSA with 5-minute association and 15-minute dissociation. Following each injection cycle the surface was regenerated with 2× 30-second injections of IgG elution buffer (Thermo). Data were analyzed in Carterra's Kinetics Tool software with 1:1 binding model.
B1 yielded a Kd of no more than 0.326 nM, a koff of no more than 1e-05 s⁻¹ and a kon of 30700 M⁻¹ s⁻¹.

As to B2, the Kd was found to be 2.39 nM, the koff is 0.000199 s⁻¹ and the kon was 83300 M⁻¹ s⁻¹.

On to B3, for which binding was characterised by a dissociation constant (Kd) of 47.9 nM, the dissociation rate constant (koff) was found to be 0.00121 s⁻¹ and the kon stood at 25300 M⁻¹ s⁻¹.

Molecule B4 came in with a Kd of 2.91 nM, a koff of 0.000159 s⁻¹ and a kon of 54700 M⁻¹ s⁻¹.

B5 showed a Kd of 6.93 nM, a koff of 0.000121 s⁻¹ and a kon of 17400 M⁻¹ s⁻¹.

The molecule B6 showed a Kd of 0.491 nM, a koff of 0.000211 s⁻¹ and a kon of 429000 M⁻¹ s⁻¹.

In the case of B7, the Kd came to 5.82 nM, the koff worked out at 0.00147 s⁻¹ and the kon came out at 252000 M⁻¹ s⁻¹.

On to B8, for which the Kd came to 3.18 nM, the koff was determined as 0.000725 s⁻¹ and the kon worked out at 228000 M⁻¹ s⁻¹.

With B9, binding was put at a Kd of 0.0983 nM, the koff was found to be 0.000167 s⁻¹ and the kon stood at 1.7e+06 M⁻¹ s⁻¹.

For B10, the Kd worked out at 0.453 nM, the koff was 0.000106 s⁻¹ and the kon stood at 234000 M⁻¹ s⁻¹.

The molecule B11 registered a Kd of no more than 0.0113 nM, a koff of no more than 1e-05 s⁻¹ and a kon of 888000 M⁻¹ s⁻¹.

On to B12, for which the Kd is 6.5 nM, the koff was determined as 0.000581 s⁻¹ and the kon turned out to be 89300 M⁻¹ s⁻¹.

Turning to B13, the Kd turned out to be 0.758 nM, the koff was found to be 0.000399 s⁻¹ and the kon was determined as 526000 M⁻¹ s⁻¹.

For the molecule B14, the affinity, expressed as Kd, was 1.37 nM; the koff came to 0.0004 s⁻¹; the kon came out at 291000 M⁻¹ s⁻¹.

With B15, binding was put at a Kd of 0.272 nM, the koff came out at 6.18e-05 s⁻¹ and the kon amounted to 227000 M⁻¹ s⁻¹.

Consider B16, for which binding was put at a Kd of 0.251 nM, the koff amounted to 0.000173 s⁻¹ and the kon came to 690000 M⁻¹ s⁻¹.

Turning to B17, the Kd worked out at 0.882 nM, the koff came to 0.000574 s⁻¹ and the kon was 651000 M⁻¹ s⁻¹.

With B18, the affinity, expressed as Kd, was 0.806 nM; the koff came to 0.000319 s⁻¹; the kon turned out to be 396000 M⁻¹ s⁻¹.

Molecule B19 gave a Kd of 0.422 nM, a koff of 0.000208 s⁻¹ and a kon of 492000 M⁻¹ s⁻¹.

B20 showed a Kd of 1.78 nM, a koff of 0.000538 s⁻¹ and a kon of 303000 M⁻¹ s⁻¹.

In turn, B21 returned a Kd of 0.7 nM, a koff of 0.000577 s⁻¹ and a kon of 824000 M⁻¹ s⁻¹.

The molecule B22 displayed a Kd of 0.295 nM, a koff of 0.000196 s⁻¹ and a kon of 662000 M⁻¹ s⁻¹.

B23 came in with a Kd of 0.986 nM, a koff of 9.43e-05 s⁻¹ and an on-rate (kon) of 95600 M⁻¹ s⁻¹.

Take B24: the Kd was found to be 3 nM, the koff amounted to 0.000555 s⁻¹ and the kon was found to be 185000 M⁻¹ s⁻¹.

The molecule B25 returned a Kd of 2.46 nM, a koff of 0.000639 s⁻¹ and a kon of 260000 M⁻¹ s⁻¹.

B26 yielded a Kd of 0.319 nM, a koff of 8.01e-05 s⁻¹ and a kon of 251000 M⁻¹ s⁻¹.

Consider B27, for which binding was put at a Kd of 1.13 nM, the koff was 0.000284 s⁻¹ and the kon is 251000 M⁻¹ s⁻¹.

In general, Kd refers to the free concentration of one partner at which half of the binding sites on the other are occupied at equilibrium, for simple one-to-one binding. A lower Kd goes with tighter binding. Broadly, the koff is the first-order rate constant of dissociation. As usually defined, the kon is a measure of how fast the partners come together. Read a low kon as slower complex formation.
